Test results taken from patent US20180179499A1, “BIOBASED PRODUCTION OF FUNCTIONALIZED ALPHA-SUBSTITUTED ACRYLATES AND C4-DICARBOXYLATES” (BIOAMBER INC., priority 2015, published 2018).

Assay: Synthase activity assay (DTNB, lysates of BL21 E. coli expressing the candidate)
Type: biochemical
Details: Table H, wild type and mutant synthases; 0.5 mM hydroxypyruvate
Description: E coli optimized genes encoding synthases were synthesized and cloned into pTrcHisA (Life Technologies (formerly Invitrogen)). Synthase genes tested are found in Table G. Plasmids containing the optimized synthase genes were transformed into BL21 E. coli cells. Empty plasmid pTrcHisA was also transformed as a negative control. […]. Flasks were incubated at 30° C. at 250 rpm shaking for 2 hours, then protein production was induced with 0.2 mM IPTG and incubated for 4 more hours at 30° C. while shaking. Cells were harvested by centrifugation and pellets were stored at −80° C.
Activity of synthase candidates was assessed with an in vitro assay using DTNB (5,5′-Dithiobis(2-nitrobenzoic acid)) as an indicator. The enzyme activity was tested using either no substrate or hydroxypyruvate as the substrate. The DTNB interacts with the free thio created by the condensation of acetyl-CoA and the substrate present. Unless otherwise specified, all chemicals were purchased from Sigma-Aldrich Chemical Company, St. Louis, Mo.
Cells were lysed using mechanical disruption using a BeadBeater (BopSpec products, Bartlesville, Okla.) following the manufacturer's instructions. The cell lysate was partially clarified by centrifugation (14,000G for 5 minutes). Protein concentrations of the resulting clarified lysates were measured via BioRad total Protein assay using the manufacturer's instructions. Lysates were normalized by protein concentration in 100 mM Tris buffer. The normalized lysates were diluted 1 to 7 in 100 mM Tris buffer. 20 μl of lysate was added to each well for the 96-well plate assay. Each condition was performed in triplicate.
The reaction mixture contains 100 mM Tris pH 7.4, 5 mM MgSO4, 0.2 mM acetyl-CoA, 0.5 mM DTNB, 0.5 mM substrate, hydroxypyruvate. To start the reaction, 180 μl of reaction mix was added to each well already containing 20 μl lysate. The reactions in these microplates were monitored at 412 nm. Readings were taken every 9 seconds for 10 minutes and the data was used to calculate activities of each enzyme. Synthase activity was observed when hydroxypyruvate was the substrate as compared to cells containing empty vector (FIG. 20(a), Table G). Background absorbance as measured by the same reaction with no substrate present were subtracted. Error bars in the graphs reflect the standard deviations calculated for the averages for each condition performed in triplicate. Specific mutations change the activity of the enzymes tested (FIG. 20(b), Table H). Further enzyme engineering will improve specificity and activity of desired enzymatic reaction.

B1: SpLys4mt3: Lys4 mutant D123N, V125F, I194L, Schizosaccharomyces pombe (protein, UniProt Q9Y823 1-418, looked up, variant D123N V125F I194L)
chain: MSVSEANGTETIKPPMNGNPYGPNPSDFLSRVNNFSIIESTLREGEQFANAFFDTEKKIQIAKALDNFGVDYIELTSPVASEQSRQDCEAICKLGLKCKILTHIRCHMDDARVAVETGVDGVNVFIGTSQYLRKYSHGKDMTYIIDSATEVINFVKSKGIEVRFSSEDSFRSDLVDLLSLYKAVDKIGVNRVGLADTVGCATPRQVYDLIRTLRGVVSCDIECHFHNDTGMAIANAYCALEAGATHIDTSILGIGERNGITPLGALLARMYVTDREYITHKYKLNQLRELENLVADAVEVQIPFNNYITGMCAFTHKAGIHAKAILANPSTYEILKPEDFGMSRYVHVGSRLTGWNAIKSRAEQLNLHLTDAQAKELTVRIKKLADVRTLAMDDVDRVLREYHADLSDADRITKEASA
For B1, the “Activity with hydroxy pyruvate” value was 0.013.
